Laboratory results published in patent US20200216522A1 (DENALI THERAPEUTICS, published 2020).
Positions count from the first letter of the chain named. In names and notes the source's numbering stands. Where two headings read alike, the source gives them in different places.

B1: hu1C7.v2 (S49A) (antibody, V domains shown)
VH: EVQLLESGGGLVQPGGSLRLSCAASGFTFSSYGMSWVRQAPGKGLEWVASISGDGGSYIHYADSVKGRFTISRDNSKNTLYLQMNSLRAEDTAVYYCARLPYWGQGTLVTVSS
VL: DIVMTQSPDSLAVSLGERATINCKSSQSLLNSGNQKNYLTWYQQKPGQPPKLLIYWASTRESGVPDRFSGSGSGTDFTLTISSLQAEDVAVYYCQQYNSYPLTFGQGTKVEIKR
B2: Clone with L1_3 (antibody, V domains shown)
VH: B1 VH
VL: DIVMTQSPDSLAVSLGERATINCKSSQSLHRSGTQKDYLVWYQQKPGQPPKLLIYWASTRESGVPDRFSGSGSGTDFTLTISSLQAEDVAVYYCQQYNSYPLTFGQGTKVEIK
notes: IgG based on hu1C7.v2
B3: hu1C7.v1 (antibody, V domains shown)
VH: B1 VH with A49S
VL: B1 VL
B4: Clone with L1_3 and H3_1 (antibody, V domains shown)
VH: B1 VH with R99K, Y102F
VL: B2 VL
notes: IgG based on hu1C7.v2
B5: hu1C7.v4 (S49A, S75A) (antibody, V domains shown)
VH: B1 VH with S76A
VL: B1 VL
B6: Clone with H1_2 (antibody, V domains shown)
VH: B1 VH with S31R, Y32V, M34T
VL: B1 VL
notes: IgG based on hu1C7.v2
B7: Clone with H1_1 (antibody, V domains shown)
VH: B1 VH with T28K, S31R, Y32V, M34V
VL: B1 VL
B8: Clone with L1_1 (antibody, V domains shown)
VH: B1 VH
VL: B1 VL with Q27H, L30Y, N31S, G33R, N34R, Q35H, N37H, T40A
B9: hu1C7.v3 (S75A) (antibody, V domains shown)
VH: B1 VH with A49S, S76A
VL: B1 VL
B10: Clone with L1_3 and H1_4 (antibody, V domains shown)
VH: B1 VH with T28R, S31G, Y32P
VL: B2 VL
notes: IgG based on hu1C7.v2
B11: Clone with L1_3 and H1_1 (antibody, V domains shown)
VH: B1 VH with T28K, S31R, Y32V, M34V
VL: B2 VL
notes: IgG based on hu1C7.v2
B12: Clone with H1_4 (antibody, V domains shown)
VH: B1 VH with T28R, S31G, Y32P
VL: B1 VL
notes: IgG based on hu1C7.v2
B13: Clone with H1_5 (antibody, V domains shown)
VH: B1 VH with G26V, F27I, T28K, F29W, S30R, S31I
VL: B1 VL
B14: Clone with H3_1 (antibody, V domains shown)
VH: B1 VH with R99K, Y102F
VL: B1 VL
B15: anti-Tau antibody 1C7/3C.35.21 (antibody, human IgG1, kappa, L234A L235A)
heavy 1: EVKLVESGGGLVKPGGSLKLSCAASGFTFSSYGMSWVRQTPEKRLEWVASISGDGGSYIHYADSVKGRFTISRDSAKNTLYLQMSSLRSEDTALYYCARLPYWGQGTLVTVSAASTKGPSVFPLAPSSKSTSGGTAALGCLVKDYFPEPVTVSWNSGALTSGVHTFPAVLQSSGLYSLSSVVTVPSSSLGTQTYICNVNHKPSNTKVDKKVEPKSCDKTHTCPPCPAPEAAGGPSVFLFPPKPKDTLMISRTPEVTCVVVDVSHEDPEVKFNWYVDGVEVHNAKTKPREEQYNSTYRVVSVLTVLHQDWLNGKEYKCKVSNKALGAPIEKTISKAKGQPREPQVYTLPPSRDELTKNQVSLWCLVKGFYPSDIAVWWESYGTEWSSYKTTPPVLDSDGSFFLYSKLTVTKEEWQQGFVFSCSVMHEALHNHYTQKSLSLSPGK
heavy 2: EVKLVESGGGLVKPGGSLKLSCAASGFTFSSYGMSWVRQTPEKRLEWVASISGDGGSYIHYADSVKGRFTISRDSAKNTLYLQMSSLRSEDTALYYCARLPYWGQGTLVTVSAASTKGPSVFPLAPSSKSTSGGTAALGCLVKDYFPEPVTVSWNSGALTSGVHTFPAVLQSSGLYSLSSVVTVPSSSLGTQTYICNVNHKPSNTKVDKKVEPKSCDKTHTCPPCPAPEAAGGPSVFLFPPKPKDTLMISRTPEVTCVVVDVSHEDPEVKFNWYVDGVEVHNAKTKPREEQYNSTYRVVSVLTVLHQDWLNGKEYKCKVSNKALGAPIEKTISKAKGQPREPQVYTLPPSRDELTKNQVSLSCAVKGFYPSDIAVEWESNGQPENNYKTTPPVLDSDGSFFLVSKLTVDKSRWQQGNVFSCSVMHEALHNHYTQKSLSLSPGK
light: DIVMTQSPSSLTVTAGEKVTMSCKSSQSLLNSGNQKNYLTWYQQKPGQPPKLLIYWASTRESGVPDRFTGSGSGTDFTLTISNVQSEDLAEYFCQQYNSYPLTFGAGTKLELKRTVAAPSVFIFPPSDEQLKSGTASVVCLLNNFYPREAKVQWKVDNALQSGNSQESVTEQDSKDSTYSLSSTLTLSKADYEKHKVYACEVTHQGLSSPVTKSFNRGEC
notes: two 1C7 Fab arms; LALAPG; also called Tau^1C7/3C.35.21

Key:
Experiment in all cases: SPR Biacore
[1] = target: T1, full-length human Tau (Tau441; 2N4R), recombinant (human, UniProt P10636 1-758)
T1 construct: made in E. coli, His6-Smt3 tag removed; biotinylated through amines for Octet and phage work; also called r-Tau; recombinant Tau
T1 sequence (P10636 other isoform, or with tags, fused parts or gaps limits assumed): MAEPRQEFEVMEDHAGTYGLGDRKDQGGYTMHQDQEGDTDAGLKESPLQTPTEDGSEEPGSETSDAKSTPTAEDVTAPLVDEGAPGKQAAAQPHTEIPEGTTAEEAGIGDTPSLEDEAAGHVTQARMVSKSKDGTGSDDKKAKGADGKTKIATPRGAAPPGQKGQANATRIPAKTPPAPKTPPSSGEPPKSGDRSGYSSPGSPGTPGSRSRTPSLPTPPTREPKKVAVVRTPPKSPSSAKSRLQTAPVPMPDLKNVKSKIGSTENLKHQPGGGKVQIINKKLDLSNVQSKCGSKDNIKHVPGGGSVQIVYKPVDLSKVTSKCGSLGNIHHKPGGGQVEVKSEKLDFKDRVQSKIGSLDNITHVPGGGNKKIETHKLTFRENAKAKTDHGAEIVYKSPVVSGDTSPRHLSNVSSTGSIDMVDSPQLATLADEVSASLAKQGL
Protocol: (§1) IgG was purified with protein A affinity chromatography. The affinity of each hulC7 IgG variant for r-Tau was determined by surface plasmon resonance using a Biacore™ T200 instrument. Biacore™ Series S CM5 sensor chips were immobilized with monoclonal mouse anti-human IgG (Fc) antibody (Human antibody capture kit from GE Healthcare). Serial 3-fold dilutions of each hulC7 variant were injected at a flow rate of […]. Each sample was analyzed with 3-minute association and 10-minute dissociation. After each injection, the chip was regenerated using 3 M MgCl₂. Binding response was corrected by subtracting the RU from a flow cell capturing an irrelevant IgG at similar density. A 1:1 Languir model of simultaneous fitting of kₒₙ and koff was used for kinetics analysis.

[2] = target: T1, full-length human Tau (Tau441; 2N4R), …; remark: listed apart in the source
[3] = target: T1, full-length human Tau (Tau441; 2N4R), …; remark: listed apart in the source
[4] = target: T1, full-length human Tau (Tau441; 2N4R), …; remark: listed apart in the source
Protocol: as §1
A further round of affinity maturation was performed by mutating certain amino acids in selected CDR-H1, CDR-L1, and CDR-L3 sequences from Table 9A, as well as the sequence of CDR-H2 (SEQ ID NO:23) of hulC7.v2. Sequence changes were identified in each CDR (Table 9B). Binding affinities were evaluated using Biacore™ (Table 10B).

Binder	Kd [1]	koff [1]	kon [1]	Kd [2]	fold weaker binding than chimeric 1C7 [2]	Kd [3]	koff [3]	kon [3]	Kd [4]	koff [4]	kon [4]
B1	1.5 nM	0.0011 s⁻¹	760000 M⁻¹ s⁻¹	~1.6 nM	~2 fold	1.5 nM	0.0011 s⁻¹	760000 M⁻¹ s⁻¹	1.45 nM	0.000851 s⁻¹	585000 M⁻¹ s⁻¹
B2	–	–	–	–	–	0.133 nM	0.000286 s⁻¹	2.15e+06 M⁻¹ s⁻¹	0.109 nM	0.000133 s⁻¹	1.22e+06 M⁻¹ s⁻¹
B3	–	–	–	~1.6 nM	~2 fold	–	–	–	–	–	–
B4	–	–	–	–	–	0.062 nM	0.000145 s⁻¹	2.36e+06 M⁻¹ s⁻¹	–	–	–
B5	1.8 nM	0.0011 s⁻¹	660000 M⁻¹ s⁻¹	~1.6 nM	~2 fold	–	–	–	–	–	–
B6	–	–	–	–	–	0.092 nM	0.000144 s⁻¹	1.56e+06 M⁻¹ s⁻¹	0.478 nM	0.000132 s⁻¹	276000 M⁻¹ s⁻¹
B7	–	–	–	–	–	0.122 nM	0.000252 s⁻¹	2.07e+06 M⁻¹ s⁻¹	–	–	–
B8	–	–	–	–	–	0.192 nM	0.000297 s⁻¹	1.54e+06 M⁻¹ s⁻¹	–	–	–
B9	1.7 nM	0.0012 s⁻¹	730000 M⁻¹ s⁻¹	~1.6 nM	~2 fold	–	–	–	–	–	–
B10	–	–	–	–	–	0.038 nM	8.72e-05 s⁻¹	2.28e+06 M⁻¹ s⁻¹	–	–	–
B11	–	–	–	–	–	0.069 nM	0.000113 s⁻¹	1.64e+06 M⁻¹ s⁻¹	–	–	–
B12	–	–	–	–	–	0.174 nM	0.00023 s⁻¹	1.32e+06 M⁻¹ s⁻¹	0.333 nM	0.000188 s⁻¹	564000 M⁻¹ s⁻¹
B13	–	–	–	–	–	0.183 nM	0.000244 s⁻¹	1.34e+06 M⁻¹ s⁻¹	–	–	–
B14	–	–	–	–	–	0.242 nM	0.000478 s⁻¹	1.97e+06 M⁻¹ s⁻¹	–	–	–
B15	–	–	–	0.4 nM	–	–	–	–	–	–	–
